According to PMC9525694:

Molecular target: T1, Bak (human (endogenous in HeLa)), Q16611
T1 chain: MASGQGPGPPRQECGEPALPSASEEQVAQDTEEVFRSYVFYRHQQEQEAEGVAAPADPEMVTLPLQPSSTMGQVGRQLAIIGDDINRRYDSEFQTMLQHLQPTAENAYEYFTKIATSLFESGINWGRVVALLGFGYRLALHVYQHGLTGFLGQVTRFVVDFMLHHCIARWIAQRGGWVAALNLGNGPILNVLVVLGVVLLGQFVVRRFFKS
Experiment: native gel or EMSA; BN-PAGE (6-16.5% gradient, 4 °C) of mitochondria from uninfected HeLa cells incubated with recombinant tBid for 30 min, lysed in 1% digitonin; Western blot for Bak
Conditions: remark: other sources report otherwise

B1: Bak, Q16611 1-211 (natural protein)
chain: T1 chain
stoichiometry N: 2
